Consider two molecules from patent US20250009852A1, “DEPLETING EGFR AND HER2 OVERCOMES RESISTANCE TO EGFR INHIBITORS IN COLORECTAL CANCER” (Health Research, Inc., priority 2021, published 2025).

The subject of one assay is HCT116 tumors. The experiment in a line: Subcutaneous HCT116 tumors in SCID mice. The settings on record: sc HCT116 tumors. Type of assay: in vivo, mouse. The protocol: SCID mice (C.B.17 SCID) were bred by the Laboratory Animal Shared Resource at Roswell Park Comprehensive Cancer Center. Male mice at 7-8 weeks of age were used. All mouse experiments were approved by the Institutional Animal Care and Use Committee at Roswell Park Comprehensive Cancer Center under protocol 1022M. We established subcutaneous tumors by inoculating 1×10^6 HCT116 cells, 4×10^6 HT29 cells, or 2×10^6 SW48 cells to the flank of each mouse in 100 μl of serum free medium. Colon patient-derived xenograft (PDX) 14650 was established from a liver metastatic lesion in a patient treated at Roswell Park Comprehensive Cancer Center. Tumor fragments (˜20 mm^3) from donor mice were implanted into the flank of each mouse subcutaneously using a trocar. Orthotopic colon tumors in mice were established by inoculating HCT116 cells stably transfected with firefly luciferase (2×10^6 cells in 50 μl of 50% serum-free medium and 50% Matrigel) to the caecum wall of each mouse. Mice in each tumor model were randomized cage-wise into treatment groups using Research Randomizer (www.randomizer.org). Subcutaneous tumor volume was measured using length ×width^2÷2. Tumor volume was measured three times each week. Orthotopic tumor growth was monitored by bioluminescence weekly. Mice were given D-luciferin (150 mg/kg) by ip and anesthetized with isoflurane, and tumor burden was measured by bioluminescence using the IVIS Spectrum In Vivo Imaging System (PerkinElmer). Drug treatment was started when significant tumor growth was detected. EP (0.5 mg/kg) was administered to mice ip once daily. […] Aderbasib (60 mg/kg) was administered to mice by gavage once daily. 5-FU (35 mg/kg) was administered to mice ip twice weekly (Monday and Thursday). EP, PEPD^G278D and 5-FU were administered to mice in PBS. Aderbasib was first dissolved in DMSO and then diluted by PBS (final 5% DMSO by volume). Each agent was administered to mice at 0.1 ml volume per 20 g body weight. When a mouse was given multiple agents on the same day, the agents were dosed at approximately 30 min intervals. The mice were closely monitored for sign of adverse effects and weighed three times each week. Mice were sacrificed 24-48 hours after the last treatment, at which point the tumors were promptly removed, snap frozen and stored at −80° C. for later analysis. Some tumors were fixed in 10% buffered formalin, paraffin embedded, cut at 4 μm, and stained with hematoxylin and eosin (H & E) for histological analysis.

Another assay has as its system HT29 tumors. Briefly: Subcutaneous HT29 tumors in SCID mice. It is filed as in vivo, mouse. The note with it: sc HT29 tumors. The procedure:
SCID mice (C.B.17 SCID) were bred by the Laboratory Animal Shared Resource at Roswell Park Comprehensive Cancer Center. Male mice at 7-8 weeks of age were used. All mouse experiments were approved by the Institutional Animal Care and Use Committee at Roswell Park Comprehensive Cancer Center under protocol 1022M. We established subcutaneous tumors by inoculating 1×10^6 HCT116 cells, 4×10^6 HT29 cells, or 2×10^6 SW48 cells to the flank of each mouse in 100 μl of serum free medium. Colon patient-derived xenograft (PDX) 14650 was established from a liver metastatic lesion in a patient treated at Roswell Park Comprehensive Cancer Center. Tumor fragments (˜20 mm^3) from donor mice were implanted into the flank of each mouse subcutaneously using a trocar. Orthotopic colon tumors in mice were established by inoculating HCT116 cells stably transfected with firefly luciferase (2×10^6 cells in 50 μl of 50% serum-free medium and 50% Matrigel) to the caecum wall of each mouse. Mice in each tumor model were randomized cage-wise into treatment groups using Research Randomizer (www.randomizer.org). Subcutaneous tumor volume was measured using length ×width^2÷2. Tumor volume was measured three times each week. Orthotopic tumor growth was monitored by bioluminescence weekly. Mice were given D-luciferin (150 mg/kg) by ip and anesthetized with isoflurane, and tumor burden was measured by bioluminescence using the IVIS Spectrum In Vivo Imaging System (PerkinElmer). Drug treatment was started when significant tumor growth was detected. EP (0.5 mg/kg) was administered to mice ip once daily. PEPD^G278D (4 mg/kg) was administered to mice ip thrice weekly (Monday, Wednesday, Friday). Aderbasib (60 mg/kg) was administered to mice by gavage once daily. 5-FU (35 mg/kg) was administered to mice ip twice weekly (Monday and Thursday). EP, PEPD^G278D and 5-FU were administered to mice in PBS. Aderbasib was first dissolved in DMSO and then diluted by PBS (final 5% DMSO by volume). […] The mice were closely monitored for sign of adverse effects and weighed three times each week. […]

The mark [1] stands for this setting: aderbasib alone 60 mg/kg by gavage daily.
The mark [2] stands for this setting: EP plus PEPD^G278D 4 mg/kg ip three times weekly, or cetuximab 15 mg/kg ip twice weekly.

As to `COC(=O)N1CC2(CC2)C[C@H](C(=O)NO)[C@H]1C(=O)N1CC=C(c2ccccc2)CC1` [aderbasib], the tumor growth entry in the assay with HCT116 tumors (setting [1]) and in the assay on HT29 tumors (setting [1]) was “ineffective” in each case.

B1: PEPD^G278D: recombinant and enzymatically inactive mutant of human peptidase D (PEPD), with replacement of glycine 278 by aspartic acid (protein)
chain: AAATGPSFWLGNETLKVPLALFALNRQRLCERLRKNPAVQAGSIVVLQGGEETQRYCTDTGVLFLQESFFHWAFGVTEPGCYGVIDVDTGKSTLFVPRLPASHATWMGKIHSKEHFKEKYAVDDVQYVDEIASVLTSQKPSVLLTLRGVNTDSGSVCREASFDGISKFEVNNTILHPEIVESRVFKTDMELEVLRYTNKISSEAHREVMKAVKVGMKEYGLESLFEHYCYSRGGMRHSSYTCICGSGENSAVLHYGHAGAPNDRTIQNGDMCLFDMDGEYYSVASDITCSFPRNGKFTADQKAVYEAVLLSSRAVMGAMKPGDWWPDIDRLADRIHLEELAHMGILSGSVDAMVQAHLGAVFMPHGLGHFLGIDVHDVGGYPEGVERIDEPGLRSLRTARHLQPGMVLTVEPGIYFIDHLLDEALADPARASFLNREVLQRFRGFGGVRIEEDVVVIDSGIELLTCVPRTVEEIEACMAGCDKAFTPFSGPK
modifications: left off: small tags and cut ends
In the case of B1, the tumor growth entry with HCT116 tumors (setting [2]) is reported as “neither agent inhibited the growth”; with HCT116 tumors (EP plus PEPD^G278D 8 mg/kg ip thrice weekly), “did not inhibit tumor growth”; with HT29 tumors (setting [2]) it was “neither agent inhibited the growth”.
